Square brackets hold non-standard residues; d marks the D form. Ends that are not written are not given here. Cit = NC(=O)NCCC[C@H](N)C(=O)O

Assay [1] concerns the target T1, QP1073, citrullinated vimentin peptide fragment VCitFLEQQNK (SEQ ID NO: 842), state with N-terminal leucine ….
T1 construct: State after aminopeptidase cleavage
T1 peptide: LEQQNK
Briefly: single-molecule on-chip sequencing of QP1073 with PS610, PS1220 and PS1223; bin ratio v. pulse duration plot. How it is done:
(§1) Sequencing reactions using the recognizers PS610 (FYW), PS1220 (R), and PS1223 (LIV) were performed separately for the QP706 and QP1073 peptide fragments. Each recognizer was labeled with a unique dye and/or unique number of dyes. A scatter plot of bin ratio v. pulse duration is shown for the QP706 peptide fragment in FIG. 18A and for the QP1073 peptide fragment in FIG. 18B. In the plot of FIG. 18A, three clusters corresponding to FLE, LEQ, and RFL segments are visible. […] In the plot of FIG. 18B, two clusters corresponding to FLE and LEQ segments are visible, but there is no cluster corresponding to RFL.

The target in assay [2] is T2, QP1033, ICitLAFAYPDDDK (SEQ ID NO: 850) (also: C-terminal azidolysine (general statement for all synthetic peptides)).
T2 peptide: I[Cit]LAFAYPDDDK-NH2
Briefly: single-molecule on-chip sequencing; recognition of the N-terminal amino acid. How it is done: (§2) In this example, sequencing reactions were conducted for 4 pairs of unmodified and citrullinated peptides: QP1028 & QP1029, QP1030 & QP1031, QP1032 & QP1033, and QP707 & QP789. […] For the QP1028 & QP1029 and QP1030 & QP1031 pairs, sequencing reactions were conducted using the PS610 (FYW) recognizer. For the QP1032 & QP1033 and QP707 & QP789 pairs, sequencing reactions were conducted using the PS1223 (LIV) recognizer.

For assay [3], the target named is T3, QP1032, IRLAFAYPDDDK (SEQ ID NO: 849).
T3 peptide: IRLAFAYPDDDK
The description is as above. How it is done: as §2

For assay [4], the target named is T4, QP789, LCitLAFAYPDDDK (SEQ ID NO: 839) (also: C-terminal azidolysine (general statement for all synthetic peptides)).
T4 construct: Intact peptide, N-terminal leucine
T4 peptide: L[Cit]LAFAYPDDDK-NH2
The assay is described as above. On the procedure:
as §2

Assay [5] deals with T5, QP707, LRLAFAYPDDDK (SEQ ID NO: 817) (not fully specified (C-terminus); also: surface-immobilized through C-terminal linker).
T5 construct: Intact peptide, N-terminal leucine; surface-immobilized through a C-terminal linker
T5 peptide: LRLAFAYPDDDK
The description is as above. How it is done: as §2

The target of assay [6] is T6, QP706, vimentin peptide fragment … (SEQ ID NO: 841), state with N-terminal leucine (LEQQNK).
T6 construct: residue range inferred from the printed segment
T6 peptide: LEQQNK
Briefly: single-molecule on-chip sequencing of QP706 with PS610, PS1220 and PS1223; LEQ cluster in bin ratio v. pulse duration plot. How it is done: as §1

Assay [7] has as its target T7, QP789, LCitLAFAYPDDDK (SEQ ID NO: 839), state with N-terminal citrulline (CitLAFAYPDDDK).
T7 construct: residue range inferred
T7 peptide: [Cit]LAFAYPDDDK
Briefly: single-molecule on-chip dynamic sequencing.

The target in assay [8] is T8, … (SEQ ID NO: 836), state with N-terminal SDMA (human, symmetric dimethylarginine (SDMA) at position 2 of SEQ ID NO: 836 (N-terminal residue of this state); conjugated C-terminally to a macromolecular linker).
T8 construct: residue range inferred
Briefly: single-molecule on-chip dynamic sequencing.

The target in assay [9] is T9, QP749, … (SEQ ID NO: 911), state with N-terminal arginine.
T9 peptide: RIAFAYPDDDK
Briefly: cell-based or functional assay.

For assay [10], the target named is T10, QP746, … (SEQ ID NO: 913), state with N-terminal arginine.
T10 peptide: RYAFAYPDDDK
Briefly: cell-based or functional assay.

Assay [11] addresses T11, QP707, … (SEQ ID NO: 817), state with N-terminal arginine (RLAFAYPDDDK).
T11 peptide: RLAFAYPDDDK
Briefly: cell-based or functional assay.

In assay [12] the target is T12, QP943, … (SEQ ID NO: 925), state with N-terminal arginine.
T12 peptide: RVAFAYPDDDK
Briefly: cell-based or functional assay.

The target in assay [13] is T13, QP941, … (SEQ ID NO: 923), state with N-terminal arginine.
T13 construct: State after aminopeptidase cleavage of the N-terminal leucine; residue range inferred; also called R-X peptide, X = Q
T13 peptide: RQAFAYPDDDK
Briefly: single-molecule on-chip sequencing with PS621, PS610 and PS961; average of 10 sequencing reactions.

For assay [14], the target named is T9, QP749, … (SEQ ID NO: 911), state with …. The assay is described as above.
For assay [15], the target named is T10, QP746, … (SEQ ID NO: 913), state with …. The description is as above.
For assay [16], the target named is T14, QP942, … (SEQ ID NO: 921), state with N-terminal arginine.
T14 construct: State after aminopeptidase cleavage of the N-terminal leucine; residue range inferred; also called R-X peptide, X = T
T14 peptide: RTAFAYPDDDK
The description is as above.

The target of assay [17] is T15, QP748, … (SEQ ID NO: 915), state with N-terminal arginine.
T15 construct: State after aminopeptidase cleavage of the N-terminal leucine; residue range inferred; also called R-X peptide, X = S
T15 peptide: RSAFAYPDDDK
The description is as above.

Assay [18] has as its target T11, QP707, … (SEQ ID NO: 817), state with …. The description is as above.
Assay [19] has as its target T16, QP938, … (SEQ ID NO: 919), state with N-terminal arginine.
T16 construct: State after aminopeptidase cleavage of the N-terminal leucine; residue range inferred; also called R-X peptide, X = E
T16 peptide: REAFAYPDDDK
Described as above.

Assay [20] concerns the target T12, QP943, … (SEQ ID NO: 925), state with …. The assay is described as above.
Assay [21] has as its target T17, QP747, … (SEQ ID NO: 917), state with N-terminal arginine.
T17 construct: State after aminopeptidase cleavage of the N-terminal leucine; residue range inferred; also called R-X peptide, X = A
T17 peptide: RAAFAYPDDDK
The description is as above.

In assay [22] the target is T18, QP1073, citrullinated vimentin peptide fragment VCitFLEQQNK (SEQ ID NO: 842), state with N-terminal ….
T18 construct: residue range inferred
T18 peptide: [Cit]FLEQQNK
Briefly: single-molecule on-chip dynamic sequencing; bin ratio v. pulse duration clusters. On the procedure: as §1

For assay [23], the target named is T19, QP706, vimentin peptide fragment … (SEQ ID NO: 841), state with N-terminal arginine (RFLEQQNK).
T19 construct: residue range inferred from the printed segment
T19 peptide: RFLEQQNK
Briefly: single-molecule on-chip sequencing of QP706 with PS610, PS1220 and PS1223; RFL cluster in bin ratio v. pulse duration plot. On the procedure:
as §1

B1: PS1223 (designed binder)
chain: MPTAASATESAIEDTPAPARPEVDGRTKPKRQPRYHVVLWDDDDHTYQYVVVMLRSLFGHPPSRGYRMAKEMDTQGRVIVLTTTREHAELKRDQIHAFGRDRLLARSKGSMKASIEAEEGSAGSAAGSGEFGSAGSAAGSGEFGSAGSAAGSGEFMPTAASATESAIEDTPAPARPEVDGRTKPKRQPRYHVVLWDDDDHTYQYVVVMLRSLFGHPPSRGYRMAKEMDTQGRVIVLTTTREHAELKRDQIHAFGRDRLLARSKGSMKASIEAEE
notes: also called PS1223 (LIV)
Consider B1, for which the binding result in assay [1] and in assay [6] was “binds” in each case. For the same molecule, the “Pulse Width” value in [2] was 0.84 s; in assay [3], 0.58 s; in assay [4] it was 0.92 s; in assay [5], 0.42 s.

B2: PS621 (other)
chain: MHSKFSHAGRICGAKFKVGEPIYRCKECSFDDTCVLCVNCFNPKDHTGHHVYTTICTEFNNGICDCGDKEAWNHTLFCKAEEG
notes: Dye-labeled N-terminal arginine recognizer; also called PS621 (R)
For the molecule B2, the binding result in assay [7] and in [8] was “no binding” each time. The “RS R-X” value in assay [9] was 15.4 min; in assay [10] it was 9.6 min; in assay [11], 17.3 min; in [12], 25.5 min. Moreover, the “PW of R-X” value in assay [13] is < 0.06 s; in assay [14], 0.28 s; in [15] it was 0.18 s; in assay [16], < 0.06 s; in assay [17], < 0.12 s; in assay [18], 0.47 s. The “PW of R-X” value in assay [19] is < 0.06 s; in assay [20], 0.41 s; in [21], < 0.12 s.

B3: PS1220 (designed binder)
chain: MHSKFSHAGRICGAKFKVGEPIYRCKECSFDDTCVLCVNCFNPKDHLGHHVYTTICTEFNNGECDCGDKTAWNHTLFCKAEEGSAGSAAGSGEFMHSKFSHAGRICGAKFKVGEPIYRCKECSFDDTCVLCVNCFNPKDHLGHHVYTTICTEFNNGECDCGDKTAWNHTLFCKAEEG
notes: also called PS1220 (R)
On to B3, for which the binding result is “no binding” in assay [22] and “binds” in [23].

The values are drawn from patent publication US20230213527A1 (QUANTUM SI, published 2023).
